The target in one assay is CD3 (human). Put plainly: CD3 binding, as described in Example 2 (ELISA or FCM).
The target of the next assay is T1, B7H3 (human, UniProt Q5ZPR3 29-466, limits assumed).
T1 construct: Tumor associated antigen; also called huB7H3
T1 sequence (looked up): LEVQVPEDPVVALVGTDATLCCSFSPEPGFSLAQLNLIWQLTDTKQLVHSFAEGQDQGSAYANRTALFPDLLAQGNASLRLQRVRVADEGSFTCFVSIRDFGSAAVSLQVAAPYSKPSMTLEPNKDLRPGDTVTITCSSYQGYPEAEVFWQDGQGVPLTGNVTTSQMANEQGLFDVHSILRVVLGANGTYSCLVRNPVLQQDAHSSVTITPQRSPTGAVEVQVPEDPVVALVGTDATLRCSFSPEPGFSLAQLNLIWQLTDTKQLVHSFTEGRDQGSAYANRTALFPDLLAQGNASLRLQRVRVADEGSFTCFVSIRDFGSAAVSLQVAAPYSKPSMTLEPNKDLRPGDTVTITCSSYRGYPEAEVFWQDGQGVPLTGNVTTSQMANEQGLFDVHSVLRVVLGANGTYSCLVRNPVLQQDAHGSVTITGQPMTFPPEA
Put plainly: FCM or ELISA.

Sequence of CD3 (human) (chain, as listed by the source): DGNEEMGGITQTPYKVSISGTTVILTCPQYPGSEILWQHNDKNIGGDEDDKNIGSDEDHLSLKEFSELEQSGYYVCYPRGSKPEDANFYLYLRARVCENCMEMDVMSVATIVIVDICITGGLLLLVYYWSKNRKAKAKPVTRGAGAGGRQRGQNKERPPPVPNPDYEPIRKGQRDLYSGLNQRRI

B1: Ly305 (antibody, V domains shown)
VH: EVQLVESGGGLVQPGGSLRLSCAASGFTFSTYAMNWVRQAPGKGLEWVGRIRSKYNNYATYYADSVKGRFTISRDDSKNSLYLQMNSLKTEDTAVYYCVRHGNFGNSYVSWFAYWGQGTLVTVSS
VL: QAVVTQEPSLTVSPGGTVTLTCRSSTGAVTTSNYANWVQQKPGQAPRGLIGGTNKRAPWTPARFSGSLLGGKAALTITGAQAEDEADYYCALWYSNLWVFGGGTKLTVL
notes: Parent mAb; also called Anti-CD3 Ly305; parent anti-CD3 mAb
A word on the EC50: it is the concentration that produces a half-maximal response. The low end stands for greater potency, the high end for weaker potency. Molecule B1 showed a half-maximal effective concentration (EC50) with CD3 of 0.03 µg/mL.

B2: Ly1965 (bispecific antibody)
chain 1: QVQLVQSGAEVKKPGASVKVSCKASGYTFTSYVMHWVRQKPGQGLEWIGYINPYNEGTESTDKFKGRATMTSDKSTSTVYMELSSLRSEDTAVYYCASIYYGYEGTYFGVWGQGTLVTVSSASTKGPSVFPLAPSSKSTSGGTAALGCLVKDYFPEPVTVSWNSGALTSGVHTFPAVLQSSGLYSLSSVVTVPSSSLGTQTYICNVNHKPSNTKVDKKVEPKSCGGGGSGGGGSGGGGSGGGGSEVQLVESGGGLVQPGGSLRLSCAASGFTFSTYAMNWVRQAPGKGLEWVGRIRSKYNNYATYYADSVKGRFTISRDDSKNSLYLQMNSLKTEDTAVYYCVRHGNFGNSYVSWFAYWGQGTLVTVSSGGGGSDKTHTCPPCPAPEAAGPSVFLFPPKPKDTLMISRTPEVTCVVVDVSHEDPEVKFNWYVDGVEVHNAKTKPREEQYNSTYRVVSVLTVLHQDWLNGKEYKCKVSNKALPAPIEKTISKAKGQPREPQVYTLPPSREEMTKNQVSLWCLVKGFYPSDIAVEWESNGQPENNYKTTPPVLDSDGSFFLYSKLTVDKSRWQQGNVFSCSVMHEALHNHYTQKSLSLSPG
chain 2: QVQLVQSGAEVKKPGASVKVSCKASGYTFTSYVMHWVRQKPGQGLEWIGYINPYNEGTESTDKFKGRATMTSDKSTSTVYMELSSLRSEDTAVYYCASIYYGYEGTYFGVWGQGTLVTVSSASTKGPSVFPLAPSSKSTSGGTAALGCLVKDYFPEPVTVSWNSGALTSGVHTFPAVLQSSGLYSLSSVVTVPSSSLGTQTYICNVNHKPSNTKVDKKVEPKSCGGGGSGGGGSGGGGSGGGGSQAVVTQEPSLTVSPGGTVTLTCRSSTGAVTTSNYANWVQQKPGQAPRGLIGGTNKRAPWTPARFSGSLLGGKAALTITGAQAEDEADYYCALWYSNLWVFGGGTKLTVLGGGGSDKTHTCPPCPAPEAAGPSVFLFPPKPKDTLMISRTPEVTCVVVDVSHEDPEVKFNWYVDGVEVHNAKTKPREEQYNSTYRVVSVLTVLHQDWLNGKEYKCKVSNKALPAPIEKTISKAKGQPREPQVYTLPPSREEMTKNQVSLSCAVKGFYPSDIAVEWESNGQPENNYKTTPPVLDSDGSFFLVSKLTVDKSRWQQGNVFSCSVMHEALHNRFTQKSLSLSPG
light: EIVLTQSPATLSLSPGERATLSCRASSSVSYMHWYQQKPGQAPRPWIYATSNLASGIPARFSGSRSGTDYTLTISSLEPEDFAVYYCQQWSSNTLTFGGGTKVEIKRTVAAPSVFIFPPSDEQLKSGTASVVCLLNNFYPREAKVQWKVDNALQSGNSQESVTEQDSKDSTYSLSSTLTLSKADYEKHKVYACEVTHQGLSSPVTKSFNRGEC
notes: B7H3 Fabs, central CD3 Fv
As for B2, the concentration giving a half-maximal response (EC50) in the assay with CD3 amounted to 0.419 µg/mL.

B3: Ly2428 (bispecific antibody)
chain 1: QVQLVQSGAEVKKPGASVKVSCKASGYTFTSYVMHWVRQKPGQGLEWIGYINPYNEGTESTDKFKGRATMTSDKSTSTVYMELSSLRSEDTAVYYCASIYYGYEGTYFGVWGQGTLVTVSSASTKGPSVFPLAPSSKSTSGGTAALGCLVKDYFPEPVTVSWNSGALTSGVHTFPAVLQSSGLYSLSSVVTVPSSSLGTQTYICNVNHKPSNTKVDKKVEPKSCGGGGSGGGGSGGGGSGGGGSEVQLVESGGGLVQPGGSLRLSCAASGFTFTNYGLHWVRQAPGKGLEWVSSISPSGGVTYYRDSVKGRFTISRDNSKNTLYLQMNSLRAEDTAVYYCAKPFLGWGGANWIAHWGQGTLVTVSSGGGGSDKTHTCPPCPAPEAAGPSVFLFPPKPKDTLMISRTPEVTCVVVDVSHEDPEVKFNWYVDGVEVHNAKTKPREEQYNSTYRVVSVLTVLHQDWLNGKEYKCKVSNKALPAPIEKTISKAKGQPREPQVYTLPPSREEMTKNQVSLWCLVKGFYPSDIAVEWESNGQPENNYKTTPPVLDSDGSFFLYSKLTVDKSRWQQGNVFSCSVMHEALHNHYTQKSLSLSPG
chain 2: QVQLVQSGAEVKKPGASVKVSCKASGYTFTSYVMHWVRQKPGQGLEWIGYINPYNEGTESTDKFKGRATMTSDKSTSTVYMELSSLRSEDTAVYYCASIYYGYEGTYFGVWGQGTLVTVSSASTKGPSVFPLAPSSKSTSGGTAALGCLVKDYFPEPVTVSWNSGALTSGVHTFPAVLQSSGLYSLSSVVTVPSSSLGTQTYICNVNHKPSNTKVDKKVEPKSCGGGGSGGGGSGGGGSGGGGSDIQMTQSPSSLSASVGDRVTITCLASEDISNDLAWYQQKPGKAPKLLIYFVDRLLDGVPSRFSGSGSGTDFTLTISSLQPEDFATYYCQQSYKYPPTFGQGTKLEIKGGGGSDKTHTCPPCPAPEAAGPSVFLFPPKPKDTLMISRTPEVTCVVVDVSHEDPEVKFNWYVDGVEVHNAKTKPREEQYNSTYRVVSVLTVLHQDWLNGKEYKCKVSNKALPAPIEKTISKAKGQPREPQVYTLPPSREEMTKNQVSLSCAVKGFYPSDIAVEWESNGQPENNYKTTPPVLDSDGSFFLVSKLTVDKSRWQQGNVFSCSVMHEALHNRFTQKSLSLSPG
light: B2 light
notes: B7H3/CD40: two B7H3 Fabs, central CD40 Fv (TM559)
With B3, the binding result in the assay with B7H3 was “binds”.

B4: Ly2424 (bispecific antibody, human IgG1, kappa)
chain 1: not shown
chain 2: QVQLVQSGAEVKKPGASVKVSCKASGYTFTSYVMHWVRQKPGQGLEWIGYINPYNEGTESTDKFKGRATMTSDKSTSTVYMELSSLRSEDTAVYYCASIYYGYEGTYFGVWGQGTLVTVSSASTKGPSVFPLAPSSKSTSGGTAALGCLVKDYFPEPVTVSWNSGALTSGVHTFPAVLQSSGLYSLSSVVTVPSSSLGTQTYICNVNHKPSNTKVDKKVEPKSCDKTHTCPPCPAPEAAGPSVFLFPPKPKDTLMISRTPEVTCVVVDVSHEDPEVKFNWYVDGVEVHNAKTKPREEQYNSTYRVVSVLTVLHQDWLNGKEYKCKVSNKALPAPIEKTISKAKGQPREPQVYTLPPSREEMTKNQVSLSCAVKGFYPSDIAVEWESNGQPENNYKTTPPVLDSDGSFFLVSKLTVDKSRWQQGNVFSCSVMHEALHNRFTQKSLSLSPGGGGGSGGGGSGGGGSGGGGSDIQMTQSPSSVSASVGDRVTITCRASQGIYSWLAWYQQKPGKAPNLLIYTASTLQSGVPSRFSGSGSGTDFTLTISSLQPEDFATYYCQQANIFPLTFGGGTKVEIK
light: B2 light
notes: B7H3/CD40: two B7H3 Fabs, terminal CD40 Fv (TM383)
On to B4, for which the binding result with B7H3 is given as “binds”.

B5: Ly2434 (bispecific antibody, human IgG1, kappa)
chain 1: QVQLVQSGAEVKKPGASVKVSCKASGYTFTSYVMHWVRQKPGQGLEWIGYINPYNEGTESTDKFKGRATMTSDKSTSTVYMELSSLRSEDTAVYYCASIYYGYEGTYFGVWGQGTLVTVSSASTKGPSVFPLAPSSKSTSGGTAALGCLVKDYFPEPVTVSWNSGALTSGVHTFPAVLQSSGLYSLSSVVTVPSSSLGTQTYICNVNHKPSNTKVDKKVEPKSCDKTHTCPPCPAPEAAGPSVFLFPPKPKDTLMISRTPEVTCVVVDVSHEDPEVKFNWYVDGVEVHNAKTKPREEQYNSTYRVVSVLTVLHQDWLNGKEYKCKVSNKALPAPIEKTISKAKGQPREPQVYTLPPSREEMTKNQVSLWCLVKGFYPSDIAVEWESNGQPENNYKTTPPVLDSDGSFFLYSKLTVDKSRWQQGNVFSCSVMHEALHNHYTQKSLSLSPGGGGGSGGGGSGGGGSGGGGSEVQLVESGGGLVQPGGSLRLSCAASGFTFTNYGLHWVRQAPGKGLEWVSSISPSGGVTYYRDSVKGRFTISRDNSKNTLYLQMNSLRAEDTAVYYCAKPFLGWGGANWIAHWGQGTLVTVSS
chain 2: QVQLVQSGAEVKKPGASVKVSCKASGYTFTSYVMHWVRQKPGQGLEWIGYINPYNEGTESTDKFKGRATMTSDKSTSTVYMELSSLRSEDTAVYYCASIYYGYEGTYFGVWGQGTLVTVSSASTKGPSVFPLAPSSKSTSGGTAALGCLVKDYFPEPVTVSWNSGALTSGVHTFPAVLQSSGLYSLSSVVTVPSSSLGTQTYICNVNHKPSNTKVDKKVEPKSCDKTHTCPPCPAPEAAGPSVFLFPPKPKDTLMISRTPEVTCVVVDVSHEDPEVKFNWYVDGVEVHNAKTKPREEQYNSTYRVVSVLTVLHQDWLNGKEYKCKVSNKALPAPIEKTISKAKGQPREPQVYTLPPSREEMTKNQVSLSCAVKGFYPSDIAVEWESNGQPENNYKTTPPVLDSDGSFFLVSKLTVDKSRWQQGNVFSCSVMHEALHNRFTQKSLSLSPGGGGGSGGGGSGGGGSGGGGSDIQMTQSPSSLSASVGDRVTITCLASEDISNDLAWYQQKPGKAPKLLIYFVDRLLDGVPSRFSGSGSGTDFTLTISSLQPEDFATYYCQQSYKYPPTFGQGTKLEIK
light: B2 light
notes: B7H3/CD40: two B7H3 Fabs, terminal CD40 Fv (TM559)
For B5, the binding result in the assay with B7H3 was “binds”.

(Values after patent US20250388669A1 (published 2025).)
